Tests used:
[1] = molecular target: the molecule itself; experiment: SEC-MALS; phosphorylated HopQ1 mixed with Nt14-3-3a at a 1:2 mass ratio, 2 h at 4°C; Superdex 200 10/300GL, 100 mM Tris-HCl pH 8.0, 150 mM NaCl, 5 mM DTT
[2] = molecular target: T1, HopQ1-6xHis, in vitro phosphorylated by AtCPK3 (Pseudomonas syringae pv. phaseolicola …, UniProt Q48BD8 1-447, in vitro phosphorylated by AtCPK3; phosphorylated residues of this sample not given); experiment: as above; settings: both partners purified
T1 construct: HopQ1 (Hrp outer protein Q), type three effector of Pseudomonas syringae pv. phaseolicola 1448A, GenBank AAZ37975.1; also called phosphorylated HopQ1; recombinant HopQ1; source: phosphorylated in vitro by GST-AtCPK3, then ion-exchange and size-exclusion chromatography
T1 sequence: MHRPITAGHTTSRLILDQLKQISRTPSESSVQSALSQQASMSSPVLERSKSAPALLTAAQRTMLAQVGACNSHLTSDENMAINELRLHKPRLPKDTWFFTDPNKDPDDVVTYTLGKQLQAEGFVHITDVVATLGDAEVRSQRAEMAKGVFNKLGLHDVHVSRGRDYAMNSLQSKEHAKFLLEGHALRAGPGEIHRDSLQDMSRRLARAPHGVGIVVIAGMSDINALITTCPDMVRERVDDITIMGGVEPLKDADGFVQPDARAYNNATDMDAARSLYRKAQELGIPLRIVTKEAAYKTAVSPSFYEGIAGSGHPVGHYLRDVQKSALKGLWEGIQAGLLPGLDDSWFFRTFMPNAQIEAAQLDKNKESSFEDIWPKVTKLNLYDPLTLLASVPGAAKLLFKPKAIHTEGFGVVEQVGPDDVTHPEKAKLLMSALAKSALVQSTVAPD

B1: Nt14-3-3a protein tagged with Strep-tag II (natural protein, UniProt Q75ZE5 1-255, looked up)
chain: MASPREENVYLAKLAEQAERYEEMVEFMEKVVGAGDDELTVEERNLLSVAYKNVIGARRASWRIISSIEQKEESRGNEDHVASIKTYRSKIESELTSICNGILKLLDSKLIGTAATGDSKVFYLKMKGDYYRYLAEFKTGAERKEAAENTLSAYKSAQDIANVELAPTHPIRLGLALNFSVFYYEILNSPDRACNLAKQAFDEAIAELDTLGEESYKDSTLIMQLLRDNLTLWTSDMQDDGTDEIKEPSKAEEQQ
notes: 14-3-3a protein, Nt14-3-3a, GenBank BAD12168.1; also called 14-3-3 dimer; not shown: Strep-tag II, C-terminal, kept
stoichiometry N [1]: 2
stoichiometry N [2]: 2 14-3-3a per HopQ1
